In PMC9536601, “Binding of adenovirus species C hexon to prothrombin and the influence of hexon on vector properties in vitro and in vivo” (PLoS Pathogens, 2022) one finds Kd, koff and kon data, which are given here for two molecules.

Test in all cases: SPR; Biacore T200; about 300 to 5,000 RU of Ad virions immobilised on a CM5 chip, coagulation factors flowed over at four concentrations, 50 uL/min; running buffer 10 mM HEPES, 150 mM NaCl, 1 mM CaCl2, 0.5 mM MgCl2, 0.1% BSA, 0.05% polysorbate 20, pH 7.4; regeneration with 3 mM EDTA; global fit to a 1:1 kinetic interaction model, double referencing
Settings in all cases: both partners purified

Experiment [1] deals with T1, human prothrombin (coagulation factor II) (human, UniProt P00734 44-622, gamma-carboxylated glutamate residues in the Gla domain).
T1 construct: prothrombin (FII), human, plasma-derived; also called human FII; FII; source: bought: Haematologic Technologies, Inc. (HCP-0010), plasma-derived

Experiment [2] has as its target T2, bovine coagulation factor X (bovine, UniProt P00743 41-492, gamma-carboxylated glutamate residues in the Gla domain).
T2 construct: coagulation factor X, bovine, plasma-derived; Pretreated with 125 uM GGACK (EGRCK); written here as one entry; also called bovine FX; source: bought: Haematologic Technologies, Inc. (BCX-1050), plasma-derived

For experiment [3], the target named is T3, mouse prothrombin (coagulation factor II) (mouse, UniProt P19221 44-618, gamma-carboxylated glutamate residues in the Gla domain).
T3 construct: prothrombin (FII), mouse, plasma-derived; also called mouse FII

The target of experiment [4] is T1, human prothrombin (coagulation factor …). This is another data set of the same source.
For experiment [5], the target named is T4, bovine prothrombin (coagulation factor II) (bovine, UniProt P00735 44-625, gamma-carboxylated glutamate residues in the Gla domain).
T4 construct: prothrombin (FII), bovine, plasma-derived; also called bovine FII; source: bought: Haematologic Technologies, Inc. (BCP-1010), plasma-derived

In experiment [6] the target is T5, human coagulation factor X (human, UniProt P00742 41-488, gamma-carboxylated glutamate residues in the Gla domain).
T5 construct: coagulation factor X, human, plasma-derived; written here as one entry; also called human FX; FX; source: bought: Haematologic Technologies, Inc. (HCX-0050), plasma-derived

The target of experiment [7] is T6, mouse coagulation factor X (mouse, UniProt O88947 41-481, gamma-carboxylated glutamate residues in the Gla domain).
T6 construct: coagulation factor X, mouse, plasma-derived; Pretreated with 125 uM GGACK (EGRCK); written here as one entry; also called mouse FX; source: bought: Haematologic Technologies, Inc. (MCX-5050), plasma-derived

T4 sequence (P00735 44-625): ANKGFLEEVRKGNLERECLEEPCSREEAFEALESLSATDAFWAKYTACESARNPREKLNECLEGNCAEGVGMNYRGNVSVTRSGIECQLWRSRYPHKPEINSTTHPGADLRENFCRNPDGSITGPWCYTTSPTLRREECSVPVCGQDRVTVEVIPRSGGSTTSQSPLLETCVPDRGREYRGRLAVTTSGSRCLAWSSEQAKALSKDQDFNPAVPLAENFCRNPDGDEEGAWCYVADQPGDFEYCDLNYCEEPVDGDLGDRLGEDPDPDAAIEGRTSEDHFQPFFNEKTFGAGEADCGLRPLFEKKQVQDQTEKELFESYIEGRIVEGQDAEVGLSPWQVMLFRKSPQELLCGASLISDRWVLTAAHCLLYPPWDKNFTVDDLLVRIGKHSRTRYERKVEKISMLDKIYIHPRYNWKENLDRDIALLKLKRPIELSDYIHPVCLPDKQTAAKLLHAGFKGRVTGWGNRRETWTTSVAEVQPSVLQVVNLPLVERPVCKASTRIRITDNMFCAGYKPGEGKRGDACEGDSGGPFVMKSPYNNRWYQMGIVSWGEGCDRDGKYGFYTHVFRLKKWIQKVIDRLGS
T3 sequence (P19221 44-618): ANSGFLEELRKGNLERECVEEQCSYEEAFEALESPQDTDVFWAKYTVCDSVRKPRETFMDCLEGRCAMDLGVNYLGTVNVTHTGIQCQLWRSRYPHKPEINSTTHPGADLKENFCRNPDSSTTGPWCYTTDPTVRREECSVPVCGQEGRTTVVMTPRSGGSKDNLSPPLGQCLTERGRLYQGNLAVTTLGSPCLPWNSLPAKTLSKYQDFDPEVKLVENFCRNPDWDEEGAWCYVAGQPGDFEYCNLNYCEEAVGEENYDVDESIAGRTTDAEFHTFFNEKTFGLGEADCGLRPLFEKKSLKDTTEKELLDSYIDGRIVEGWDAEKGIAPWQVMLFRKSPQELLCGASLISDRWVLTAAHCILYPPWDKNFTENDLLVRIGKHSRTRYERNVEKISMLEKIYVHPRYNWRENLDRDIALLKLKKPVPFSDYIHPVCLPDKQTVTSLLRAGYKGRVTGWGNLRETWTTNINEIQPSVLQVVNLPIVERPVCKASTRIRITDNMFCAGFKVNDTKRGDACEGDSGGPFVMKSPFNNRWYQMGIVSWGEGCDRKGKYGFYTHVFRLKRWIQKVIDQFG

B1: hexon of the E1/E3-deleted Ad5 vector Ad5.0 (wild-type Ad5 capsid, on virions) (natural protein, human adenovirus 5)
chain: ATPSMMPQWSYMHISGQDASEYLSPGLVQFARATETYFSLNNKFRNPTVAPTHDVTTDRSQRLTLRFIPVDREDTAYSYKARFTLAVGDNRVLDMASTYFDIRGVLDRGPTFKPYSGTAYNALAPKGAPNPCEWDEAATALEINLEEEDDDNEDEVDEQAEQQKTHVFGQAPYSGINITKEGIQIGVEGQTPKYADKTFQPEPQIGESQWYETEINHAAGRVLKKTTPMKPCYGSYAKPTNENGGQGILVKQQNGKLESQVEMQFFSTTEATAGNGDNLTPKVVLYSEDVDIETPDTHISYMPTIKEGNSRELMGQQSMPNRPNYIAFRDNFIGLMYYNSTGNMGVLAGQASQLNAVVDLQDRNTELSYQLLLDSIGDRTRYFSMWNQAVDSYDPDVRIIENHGTEDELPNYCFPLGGVINTETLTKVKPKTGQENGWEKDATEFSDKNEIRVGNNFAMEINLNANLWRNFLYSNIALYLPDKLKYSPSNVKISDNPNTYDYMNKRVVAPGLVDCYINLGARWSLDYMDNVNPFNHHRNAGLRYRSMLLGNGRYVPFHIQVPQKFFAIKNLLLLPGSYTYEWNFRKDVNMVLQSSLGNDLRVDGASIKFDSICLYATFFPMAHNTASTLEAMLRNDTNDQSFNDYLSAANMLYPIPANATNVPISIPSRNWAAFRGWAFTRLKTKETPSLGSGYDPYYTYSGSIPYLDGTFYLNHTFKKVAITFDSSVSWPGNDRLLTPNEFEIKRSVDGEGYNVAQCNMTKDWFLVQMLANYNIGYQGFYIPESYKDRMYSFFRNFQPMSRQVVDDTKYKDYQQVGILHQHNNSGFVGYLAPTMREGQAYPANFPYPLIGKTAVDSITQKKFLCDRTLWRIPFSSNFMSMGALTDLGQNLLYANSAHALDMTFEVDPMDEPTLLYVLFEVFDVVRVHRPHRGVIETVYLRTPFSAGNATT
notes: hexon of human adenovirus type 5, unchanged, as it stands in the capsid of the vector; Immobilised as whole vector virions; source: E1/E3-deleted Ad5 vector grown on 293 cells, virions purified by CsCl ultracentrifugation
By Kd is commonly meant the concentration at which binding is half-saturated. Higher therefore signals a looser complex. By koff is commonly meant a measure of how fast the partners let go of each other. A low value points to slow dissociation. A word on the kon: it is the rate constant with which the complex forms. Low values mean slow association, high ones fast association. In experiment [1], B1 registered a Kd of 0.035 µM, a koff of 0.00317 s⁻¹ and a kon of 90500 M⁻¹ s⁻¹.

B2: hexon of wild-type human adenovirus type 6 (on virions) (natural protein)
chain: ATPSMMPQWSYMHISGQDASEYLSPGLVQFARATETYFSLNNKFRNPTVAPTHDVTTDRSQRLTLRFIPVDREDTAYSYKARFTLAVGDNRVLDMASTYFDIRGVLDRGPTFKPYSGTAYNALAPKGAPNSCEWEQNETAQVDAQELDEEENEANEAQAREQEQAKKTHVYAQAPLSGIKITKEGLQIGTADATVAGAGKEIFADKTFQPEPQVGESQWNEADATAAGGRVLKKTTPMKPCYGSYARPTNSNGGQGVMVEQNGKLESQVEMQFFSTSTNATNEVNNIQPTVVLYSEDVNMETPDTHLSYKPKMGDKNAKVMLGQQAMPNRPNYIAFRDNFIGLMYYNSTGNMGVLAGQASQLNAVVDLQDRNTELSYQLLLDSIGDRTRYFSMWNQAVDSYDPDVRIIENHGTEDELPNYCFPLGGIGITDTFQAVKTTAANGDQGNTTWQKDSTFAERNEIGVGNNFAMEINLNANLWRNFLYSNIALYLPDKLKYNPTNVEISDNPNTYDYMNKRVVAPGLVDCYINLGARWSLDYMDNVNPFNHHRNAGLRYRSMLLGNGRYVPFHIQVPQKFFAIKNLLLLPGSYTYEWNFRKDVNMVLQSSLGNDLRVDGASIKFDSICLYATFFPMAHNTASTLEAMLRNDTNDQSFNDYLSAANMLYPIPANATNVPISIPSRNWAAFRGWAFTRLKTKETPSLGSGYDPYYTYSGSIPYLDGTFYLNHTFKKVAITFDSSVSWPGNDRLLTPNEFEIKRSVDGEGYNVAQCNMTKDWFLVQMLANYNIGYQGFYIPESYKDRMYSFFRNFQPMSRQVVDDTKYKDYQQVGIIHQHNNSGFVGYLAPTMREGQAYPANVPYPLIGKTAVDSITQKKFLCDRTLWRIPFSSNFMSMGALTDLGQNLLYANSAHALDMTFEVDPMDEPTLLYVLFEVFDVVRVHRPHRGVIETVYLRTPFSAGNATT
For the molecule B2, the Kd in experiment [2] came out at 0.1 µM; in experiment [3] it was 0.0099 µM; in experiment [4] it was 0.0027 µM; in experiment [5], 0.075 µM; in experiment [6], 0.028 µM; in experiment [7], 0.00042 µM. The koff in experiment [2] amounted to 0.0147 s⁻¹; in experiment [3] it was 0.000575 s⁻¹; in experiment [4], 0.000182 s⁻¹; in experiment [5], 0.00395 s⁻¹; in experiment [6], 0.00326 s⁻¹; in experiment [7] it was 4.08e-05 s⁻¹. The association rate constant (kon) in experiment [2] is 144000 M⁻¹ s⁻¹; in experiment [3], 58200 M⁻¹ s⁻¹; in experiment [4] it was 67000 M⁻¹ s⁻¹; in experiment [5], 53000 M⁻¹ s⁻¹; in experiment [6], 116000 M⁻¹ s⁻¹; in experiment [7] it was 96600 M⁻¹ s⁻¹.
